Source: ChEMBL document CHEMBL1132182, “2,6-Difluorophenol as a bioisostere of a carboxylic acid: bioisosteric analogues of gamma-aminobutyric acid” (J Med Chem, 1999)

System: NCCCC(=O)O
Description: Michaelis-Menten constant of the compound.

Chain of 4-aminobutyrate aminotransferase, mitochondrial (Sus scrofa), P80147 (P80147 whole entry): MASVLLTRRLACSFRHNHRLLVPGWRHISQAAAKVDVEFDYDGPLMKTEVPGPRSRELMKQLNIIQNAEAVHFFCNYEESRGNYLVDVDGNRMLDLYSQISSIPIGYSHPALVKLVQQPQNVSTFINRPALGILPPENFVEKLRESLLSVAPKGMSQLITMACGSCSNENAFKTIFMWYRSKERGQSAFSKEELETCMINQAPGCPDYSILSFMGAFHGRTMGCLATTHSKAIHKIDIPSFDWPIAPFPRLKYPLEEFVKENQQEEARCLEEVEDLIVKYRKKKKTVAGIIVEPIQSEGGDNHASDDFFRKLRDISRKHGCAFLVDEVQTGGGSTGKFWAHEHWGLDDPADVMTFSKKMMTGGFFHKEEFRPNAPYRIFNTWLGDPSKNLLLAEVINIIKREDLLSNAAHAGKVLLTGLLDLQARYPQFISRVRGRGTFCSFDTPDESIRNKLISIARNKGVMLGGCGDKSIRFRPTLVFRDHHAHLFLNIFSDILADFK

Substance “4-aminobutyrate aminotransferase, mitochondrial (Sus scrofa), P80147” has a Km of 2500 µM.
